These results are taken from US20260217833A1 (APTEVO RESEARCH AND DEVELOPMENT, published 2026).

B1: CD4001152 (Fc fusion)
scFv: QIVMTQSPDSLALSLGERATMNCKSSQSLLFSVNQKNYLAWYQQKPGQAPRLLIYWASTRESGVPDRFSGSGSGTDFTLTISRLEPEDVATYYCQHYYSYPWTFGAGTKLEIKGGGGSGGGGSGGGGSGGGGSQVQLVQSGAEVKKPGASVKVSCKASGYTFSTSWIEWVRQAPGQGLEWIGEILPGSGSTNYAQKFQGRATFTADTSTSTAYMELSSLRSEDTAVYYCARGDDGSYVRWYFDVWGQGTTVTVSS
notes: Humanized 1D5 scFv variant, as told of in Fc-scFv format; not shown: the human Fc and any Fc-scFv linker; neither the Fc entry nor the scFv position (N- or C-terminal) is fixed for this construct
B2: CD4001163 (Fc fusion)
scFv: B1 scFv with L13V, M21I, L110V, I167M, I181M, A201V, F203M, A205R, A212V
notes: As m85; not shown: Fc (hinge-CH2-CH3) and any Fc-scFv linker of the tested fusion
B3: CD4001103 (Fc fusion)
scFv: B1 scFv with D9G, S10T, A12S, L15P, N22T, V89A, Q136K, V170I
notes: As m82; not shown: the human Fc (hinge-CH2-CH3) of the scFv-hFc format
B4: PC401128 (bispecific antibody)
scFv-Fc-scFv chain: DIQMTQSPSSLSASVGDRVTITCRASQDINKFLSWYQQKPGKAPKLLIHYTSSLQSGVPSRFSGSGSGTDFTLTISSLQPEDFATYYCLQYDNLYTFGQGTKLEIKGGGGSGGGGSGGGGSGGGGSEVQLVESGGGLVQPGGSLRLSCAASGFTFSDYGMAWVRQAPGKGLEWVSFITSLAYIIYYADSVKGRFTISRDNAKNSLYLQMNSLRAEDTAVYYCARNYGSSPYYFDYWGQGTLVTVSSEPKSSDKTHTCPPCPAPPAAAPSVFLFPPKPKDTLMISRTPEVTCVVVDVSHEDPEVKFNWYVDGVEVHNAKTKPREEQYNSTYRVVSVLTVLHQDWLNGKEYKCAVSNKALPAPIEKTISKAKGQPREPQVYTLPPSRDELTKNQVSLTCLVKGFYPSDIAVEWESNGQPENNYKTTPPVLDSDGSFFLYSKLTVDKSRWQQGNVFSCSVMHEALHNHYTQKSLSLSPGGGGSPSDIQMTQSPSSVSASVGDRVTITCRASQSLTFSVNQKNYLAWYQQKPGKAPKLLIYWASSLQSGVPSRFSGSGSGTDFTLTISSLQPEDFATYYCQHYYSYPWTFGQGTKVEIKGGGGSGGGGSGGGGSGGGGSQVQLVQSGAEVKKPGSSVKVSCKASGYTFSTSWIEWIRQAPGQGLEWMGSILPGSGSTNYAQKFQGRVTITADTSTSTAYMELSSLRSEDTAVYYCARGDDGSYVRWYFDHWGQGTLVTVSS
notes: also called L-Leu30Thr
B5: PC401120 (bispecific antibody)
chain: B4 scFv-Fc-scFv chain with T512L, Q588C, G659C
notes: also called L-Gln100Cys + H-Gly44Cys
B6: PC401124 (bispecific antibody)
chain: B4 scFv-Fc-scFv chain with T512L, A676N, V720N
notes: also called H-Ala60Asn + H-Val100aAsn
B7: PC401122 (bispecific antibody)
chain: B4 scFv-Fc-scFv chain with T512L, V720N
notes: also called H-Val100aAsn
B8: PC401119 (bispecific antibody)
chain: B4 scFv-Fc-scFv chain with T512L, A676N
notes: also called H-Ala60Asn
B9: PC401003 (bispecific antibody)
chain: B4 scFv-Fc-scFv chain with T512L
notes: also called Parent; DDG (Original)
B10: PC401144 (bispecific antibody)
chain: B4 scFv-Fc-scFv chain with Q588C, G659C, A676N, V720N
B11: PC401145 (bispecific antibody)
chain: B4 scFv-Fc-scFv chain with T512L, Q588C, G659C, A676N, V720N
B12: CD4001090 (Fc fusion)
chain: EVVMTQSPDFQSVTPKEKVTITCRSSQSLVHYNGYTYLHWYQQKPDQSPKLLIYKVSNRFSGVPSRFSGSGSGTDFTLTINSLEAEDAAAYFCSQTTHVPLTFGPGTKVDIKGGGGSGGGGSGGGGSGGGGSEVQLVESGGGVVQPGRSLRLSCAASGFTFSSYAMSWVRQAPGKGLEWVASISSAGTYIYYADSVKGRFTISRDNSKNTLYLQMNGLRAEDTAVYYCARHGNGYDPLWYFDVWGQGTLVTVSS
notes: As m65; not shown: wildtype IgG1 Fc region
B13: CD4001099 (Fc fusion)
chain: B12 chain with V143L, V144E, R148G, G217S, L249T
notes: as for B12
B14: CD4001088 (Fc fusion)
chain: B12 chain with V143L, K197Q, S207G, T210S, G217S, V225L, L249M
notes: as for B12

Where a chain is given by its changes, count along the chain named.

T4 sequence (P55899 24-297 limits assumed, chain 1 of 2): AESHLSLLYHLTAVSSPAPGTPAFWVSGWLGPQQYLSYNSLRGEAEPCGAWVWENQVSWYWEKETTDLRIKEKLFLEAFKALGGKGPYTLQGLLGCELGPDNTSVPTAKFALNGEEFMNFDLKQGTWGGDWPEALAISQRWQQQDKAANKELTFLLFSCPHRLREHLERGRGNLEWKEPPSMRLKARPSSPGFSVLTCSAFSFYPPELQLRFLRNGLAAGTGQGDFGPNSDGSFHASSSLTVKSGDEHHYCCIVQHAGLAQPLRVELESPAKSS
T4 sequence (P61769 21-119 limits assumed, chain 2 of 2): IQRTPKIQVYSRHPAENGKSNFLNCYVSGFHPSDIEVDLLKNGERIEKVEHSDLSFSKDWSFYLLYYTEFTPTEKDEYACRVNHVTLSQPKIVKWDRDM
T2 sequence (Q9NZQ7 19-290): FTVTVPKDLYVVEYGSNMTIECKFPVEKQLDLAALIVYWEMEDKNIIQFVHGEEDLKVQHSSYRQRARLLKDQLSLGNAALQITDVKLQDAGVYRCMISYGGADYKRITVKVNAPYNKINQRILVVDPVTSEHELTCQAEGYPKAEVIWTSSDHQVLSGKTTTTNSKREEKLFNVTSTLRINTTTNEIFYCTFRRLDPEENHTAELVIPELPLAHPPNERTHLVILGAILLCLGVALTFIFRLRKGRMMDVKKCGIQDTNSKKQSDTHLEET

One experiment addresses T1, human CD40 full-length (human, UniProt P25942 21-277).
T1 construct: Also used for CD40 of Daudi cells, of CD40-expressing HEK293 cells and of the BPS CD40/NFkB HEK293 reporter cells where the row says so; also called CD4001012; CHOK1SV/CD40
In words: on-cell binding.
As for B1, the binding result is given as “no binding”.

As to B2, the binding result is reported as “no binding”.

In the next experiment the target is T1, human CD40 full-length. In words: flow cytometry, CHOK1SV/human CD40 cells. On the technique in general: A flow cytometer gives signals particle by particle.
For the molecule B3, the binding result is given as “binds”.

For the next experiment, the target named is T1, human CD40 full-length. In words: flow cytometry, CHOK1SV/human CD40 cells. The source holds these as a separate data set.
Regarding B4, the binding result is reported as “binds”.

Turning to B5, the binding result is “binds”.

B6: the binding result is on record as “binds”.

As to B7, the binding result is “binds”.

On to B8, for which the binding result is “binds”.

The next experiment addresses T2, Human PD-L1 full-length (human, UniProt Q9NZQ7 19-290).
T2 construct: also called PDL01021; CHOK1SV/huPDL1
As to the kind of experiment: flow cytometry, CHOK1SV/human PD-L1 cells.
For the molecule B9, the “EC50 (read off the curve)” value is ~3 nM.

B5: the “EC50 (read off the curve)” value is ~3 nM.

In the case of B7, the “EC50 (read off the curve)” value was ~3 nM.

Turning to B8, the “EC50 (read off the curve)” value is ~5 nM.

The next experiment deals with T2, Human PD-L1 full-length. As to the kind of experiment: flow cytometry, CHOK1SV/human PD-L1 cells. The source holds these as a separate data set.
In the case of B9, the “EC50 (read off the curve)” value was ~3 nM.

On to B10, for which the binding result was “binds”.

Take B4: the binding result is recorded as “binds”.

Take B11: the binding result is given as “binds”.

For B6, the binding result is given as “binds”.

The target in a further experiment is T3, Cynomolgus CHOK1SV/CD40.
T3 construct: also called Cyno CD40 full-length; CD4001013
T3 receptor chain: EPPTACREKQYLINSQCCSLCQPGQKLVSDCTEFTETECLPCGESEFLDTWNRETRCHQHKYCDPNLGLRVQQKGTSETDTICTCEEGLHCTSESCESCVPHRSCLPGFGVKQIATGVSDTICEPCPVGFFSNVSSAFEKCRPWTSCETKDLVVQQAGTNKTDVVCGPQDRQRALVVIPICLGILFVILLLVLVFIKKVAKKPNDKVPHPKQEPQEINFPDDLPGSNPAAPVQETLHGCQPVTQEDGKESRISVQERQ
In words: flow cytometry, CHOK1SV/cynomolgus CD40 cells.
B9: the binding result is given as “binds”.

Consider B4, for which the binding result was “binds”.

In the case of B5, the binding result is “binds”.

Regarding B6, the binding result is given as “binds”.

Take B7: the binding result is “binds”.

Turning to B8, the binding result is listed as “binds”.

A further experiment addresses T1, human CD40 full-length. As to the kind of experiment: flow cytometry, Daudi cells (endogenous CD40).
Consider B10, for which the binding result is “binds”.

As for B11, the binding result is reported as “binds”.

The target of another experiment is T3, Cynomolgus CHOK1SV/CD40. As to the kind of experiment: flow cytometry, CHOK1SV/cynomolgus CD40 cells. The source holds these as a separate data set.
With B10, the binding result is reported as “binds”.

Turning to B11, the binding result is reported as “binds”.

A further experiment concerns the target T4, human neonatal Fc receptor (FcRn, complexed with beta-2-macroglobulin) (human, UniProt P55899 24-297; P61769 21-119).
T4 construct: also called Human FcRn/b2m
In words: SPR, FcRn/b2m immobilized, bispecific injected, pH 6.0, two-state reaction fit.
The molecule B9 registered an equilibrium dissociation constant (Kd) of 121 nM.

The molecule B5 came in with a Kd of 146 nM.

As to B6, the Kd turned out to be 144 nM.

Molecule B7 returned a Kd of 134 nM.

The molecule B8 yielded a Kd of 122 nM.

Another experiment concerns the target T5, human CD40 ECD- HAC tag (human).
T5 construct: also called CD4001006; recombinant monomeric human CD40 ectodomain (ECD)
In words: SPR (Biacore T200), bispecific captured on the chip, monovalent CD40 ECD injected.
Turning to B10, the affinity, expressed as Kd, was 81 nM; the koff came out at 0.00059 s⁻¹; the kon was determined as 7300 M⁻¹ s⁻¹.

Take B11: the Kd is 81 nM, the koff was determined as 0.00061 s⁻¹ and the kon amounted to 7600 M⁻¹ s⁻¹.

As to B5, the Kd turned out to be 74 nM, the koff stood at 0.00054 s⁻¹ and the kon was 7200 M⁻¹ s⁻¹.

As to B7, the Kd came to 69 nM, the off-rate constant (koff) came to 0.0006 s⁻¹ and the kon is 8700 M⁻¹ s⁻¹.

With B8, the Kd came out at 57 nM, the koff was 0.0004 s⁻¹ and the kon came to 7000 M⁻¹ s⁻¹.

The target in the next experiment is T1, human CD40 full-length. In words: binding to cells expressing full length human- or cyno-CD40, unpurified small-scale material.
For the molecule B12, the binding result was “binds”.

For B13, the binding result is “binds”.

Regarding B14, the binding result was “binds”.

As usually defined, the EC50 (read off the curve) is the concentration at which the effect is half-maximal. Low readings indicate higher potency in that assay, high ones lower potency in that assay. The term Kd denotes the concentration at which binding is half-saturated. One may read the koff as a measure of how fast the partners let go of each other. The low end stands for slow dissociation, the high end for fast dissociation. One may read the kon as the second-order rate constant of association. Higher therefore signals faster complex formation.
